# Residue numbers refer to the chain shown, from its start.
# T1: human GIP receptor (human) (UniProt P48546)
# T1 sequence (looked up): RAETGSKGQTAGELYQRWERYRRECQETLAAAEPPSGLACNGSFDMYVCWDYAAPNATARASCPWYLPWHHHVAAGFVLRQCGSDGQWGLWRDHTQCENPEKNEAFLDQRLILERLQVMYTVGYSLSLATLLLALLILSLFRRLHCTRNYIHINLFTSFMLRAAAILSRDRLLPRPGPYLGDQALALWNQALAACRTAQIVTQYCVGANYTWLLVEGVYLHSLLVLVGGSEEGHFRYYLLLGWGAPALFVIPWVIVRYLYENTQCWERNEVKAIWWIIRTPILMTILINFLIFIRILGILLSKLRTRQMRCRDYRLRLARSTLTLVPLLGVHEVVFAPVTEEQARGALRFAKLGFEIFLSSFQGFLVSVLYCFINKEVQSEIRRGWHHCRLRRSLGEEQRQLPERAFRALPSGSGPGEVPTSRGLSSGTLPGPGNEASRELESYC
# B1: Example 435 (peptide)
# chain: YXQGTXTSDYSILLDKKAQXAFIEYLEEGGPSSGAPPPSGE
# modifications: synthetic construct; SITE 2: note = 2-Aminoisobutyric Acid; SITE 6: note = alpha-methyl-2-fluoro-L-phenylalanine; SITE 17: note = Lysine is chemically modified through conjugation of the epsilon-amino group of the Lysine side chain with (gamma-Glu)2-CO-(CH2)16-CO2H; SITE 20: note = 2-Aminoisobutyric
# B2: Example 436 (peptide)
# chain: YXQGTXTSDXXIXLDXKAQXSFIEXLIEGGPSSGEPPPE
# modifications: synthetic construct; SITE 2: note = 2-Aminoisobutyric Acid; SITE 6: note = alpha-methyl-2-fluoro-L-phenylalanine; SITE 10: note = 3-(4-Pyridyl)-L-alanine; SITE 11: note = alpha-methyl-L-serine; SITE 13: note = alpha-methyl-leucine; SITE 16: note = L-ornithine; SITE 17: note = Lysine is chemically mo
# B3: Example 437 (peptide)
# chain: B2 chain with S21X, I27A
# modifications: synthetic construct; SITE 2: note = 2-Aminoisobutyric Acid; SITE 6: note = alpha-methyl-2-fluoro-L-phenylalanine; SITE 10: note = 3-(4-Pyridyl)-L-alanine; SITE 11: note = alpha-methyl-L-serine; SITE 13: note = alpha-methyl-leucine; SITE 16: note = L-ornithine; SITE 17: note = Lysine is chemically mo
# B4: Example 438 (peptide)
# chain: B2 chain with S21X, I27S
# modifications: synthetic construct; SITE 2: note = 2-Aminoisobutyric Acid; SITE 6: note = alpha-methyl-2-fluoro-L-phenylalanine; SITE 10: note = 3-(4-Pyridyl)-L-alanine; SITE 11: note = alpha-methyl-L-serine; SITE 13: note = alpha-methyl-leucine; SITE 16: note = L-ornithine; SITE 17: note = Lysine is chemically mo
# B5: Example 40 (peptide)
# chain: YXQGTFTSDFSKXLDKKAQXAFIEWLIEGGPSSGAPPPSEG
# modifications: Aib, αMeL; lysine acylated; C-terminal amide; synthetic construct; SITE 2: note = 2-Aminoisobutyric Acid; SITE 13: note = alpha-methyl-leucine; SITE 17: note = Lysine is chemically modified through conjugation of the epsilon-amino group of the Lysine side chain with (2-[2-(2-Amino-ethoxy)-ethoxy]-acetyl)-(gamma-Glu)-CO-(CH2) 18-CO2H; SITE 20: n
# B6: Example 439 (peptide)
# chain: B2 chain with S21X, I27Q
# modifications: synthetic construct; SITE 2: note = 2-Aminoisobutyric Acid; SITE 6: note = alpha-methyl-2-fluoro-L-phenylalanine; SITE 10: note = 3-(4-Pyridyl)-L-alanine; SITE 11: note = alpha-methyl-L-serine; SITE 13: note = alpha-methyl-leucine; SITE 16: note = L-ornithine; SITE 17: note = Lysine is chemically mo
# B7: Example 441 (peptide)
# chain: YXQGTXTSDXSIXLDXKAQXAFIEYLEEGGPSSGAPPPS
# modifications: synthetic construct; SITE 2: note = 2-Aminoisobutyric Acid; SITE 6: note = alpha-methyl-2-fluoro-L-phenylalanine; SITE 10: note = 3-(4-Pyridyl)-L-alanine; SITE 13: note = alpha-methyl-leucine; SITE 16: note = L-ornithine; SITE 17: note = Lysine is chemically modified through conjugation of the epsil
# B8: Example 442 (peptide)
# chain: B7 chain with X16K, A35E
# modifications: synthetic construct; SITE 2: note = 2-Aminoisobutyric Acid; SITE 6: note = alpha-methyl-2-fluoro-L-phenylalanine; SITE 10: note = 3-(4-Pyridyl)-L-alanine; SITE 13: note = alpha-methyl-leucine; SITE 17: note = Lysine is chemically modified through conjugation of the epsilon-amino group of the Lysine
# B9: Example 443 (peptide)
# chain: B7 chain with X16K, P37E
# modifications: synthetic construct; SITE 2: note = 2-Aminoisobutyric Acid; SITE 6: note = alpha-methyl-2-fluoro-L-phenylalanine; SITE 10: note = 3-(4-Pyridyl)-L-alanine; SITE 13: note = alpha-methyl-leucine; SITE 17: note = Lysine is chemically modified through conjugation of the epsilon-amino group of the Lysine
# B10: Example 444 (peptide)
# chain: B2 chain with K17I, S21X, E28K
# modifications: not fully specified; synthetic construct; SITE 2: note = 2-Aminoisobutyric Acid; SITE 6: note = alpha-methyl-2-fluoro-L-phenylalanine; SITE 10: note = 3-(4-Pyridyl)-L-alanine; SITE 11: note = alpha-methyl-L-serine; SITE 13: note = alpha-methyl-leucine; SITE 16: note = L-ornithine; SITE 20: note = 2-Aminoisobutyric Acid;
# B11: Example 445 (peptide)
# chain: B7 chain with X16K, S39E
# modifications: synthetic construct; SITE 2: note = 2-Aminoisobutyric Acid; SITE 6: note = alpha-methyl-2-fluoro-L-phenylalanine; SITE 10: note = 3-(4-Pyridyl)-L-alanine; SITE 13: note = alpha-methyl-leucine; SITE 17: note = Lysine is chemically modified through conjugation of the epsilon-amino group of the Lysine
# B12: Example 446 (peptide)
# chain: B7 chain with X16K, E27S
# modifications: synthetic construct; SITE 2: note = 2-Aminoisobutyric Acid; SITE 6: note = alpha-methyl-2-fluoro-L-phenylalanine; SITE 10: note = 3-(4-Pyridyl)-L-alanine; SITE 13: note = alpha-methyl-leucine; SITE 17: note = Lysine is chemically modified through conjugation of the epsilon-amino group of the Lysine
# B13: Example 447 (peptide)
# chain: B2 chain with I12E, S21X
# modifications: synthetic construct; SITE 2: note = 2-Aminoisobutyric Acid; SITE 6: note = alpha-methyl-2-fluoro-L-phenylalanine; SITE 10: note = 3-(4-Pyridyl)-L-alanine; SITE 11: note = alpha-methyl-L-serine; SITE 13: note = alpha-methyl-leucine; SITE 16: note = L-ornithine; SITE 17: note = Lysine is chemically mo
# B14: Example 449 (peptide)
# chain: B2 chain with S21N, X25Y
# modifications: synthetic construct; SITE 2: note = 2-Aminoisobutyric Acid; SITE 6: note = alpha-methyl-2-fluoro-L-phenylalanine; SITE 10: note = 3-(4-Pyridyl)-L-alanine; SITE 11: note = alpha-methyl-L-serine; SITE 13: note = alpha-methyl-leucine; SITE 16: note = L-ornithine; SITE 17: note = Lysine is chemically mo
# Target: human glucagon receptor (human) (UniProt P47871)
# Sequence (P47871 26-477): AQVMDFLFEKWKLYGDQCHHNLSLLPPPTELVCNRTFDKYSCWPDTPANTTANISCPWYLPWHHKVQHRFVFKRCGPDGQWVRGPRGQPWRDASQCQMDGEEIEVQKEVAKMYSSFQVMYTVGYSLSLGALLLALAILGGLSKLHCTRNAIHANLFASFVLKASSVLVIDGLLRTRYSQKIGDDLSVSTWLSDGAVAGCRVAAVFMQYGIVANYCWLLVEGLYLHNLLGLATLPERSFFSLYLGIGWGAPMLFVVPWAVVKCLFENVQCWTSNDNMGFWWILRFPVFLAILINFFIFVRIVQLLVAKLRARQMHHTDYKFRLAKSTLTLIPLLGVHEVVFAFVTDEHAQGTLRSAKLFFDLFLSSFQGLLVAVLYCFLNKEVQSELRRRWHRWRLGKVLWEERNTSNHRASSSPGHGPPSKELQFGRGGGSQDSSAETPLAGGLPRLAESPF
# Test: cell-based or functional assay
Binder,Relative cAMP EC50 [nM],"cAMP Rel EC50, nM (1% HSA) [nM]",cAMP Rel EC50 (in the presence of 1% HSA) [nM],"Relative cAMP EC50, nM (0.1% casein) [nM]","cAMP Rel EC50 (receptor-expressing HEK-293 cells, 1% HSA) [nM]"
B1,3.01,334,–,–,–
B2,2.27,182,–,–,–
B3,1.76,188,–,–,–
B4,3.62,431,–,–,–
B5,12.3,–,2750,–,–
B6,4.38,165,–,–,–
B7,8,855,–,–,–
B8,5.66,342,–,–,–
B9,6.09,265,–,–,–
B10,6.49,1280,–,–,–
B11,10.1,448,–,–,–
B12,8.34,516,–,–,–
B13,–,–,–,9.71,1090
B14,–,–,–,11.5,424

# Target: T1, human GIP receptor (human)
# Test: cell-based or functional assay
Binder,Relative cAMP EC50 [nM],"cAMP Rel EC50, nM (1% HSA) [nM]",cAMP Rel EC50 (in the presence of 1% HSA) [nM],"Relative cAMP EC50, nM (0.1% casein) [nM]","cAMP Rel EC50 (receptor-expressing HEK-293 cells, 1% HSA) [nM]"
B1,0.0239,10.3,–,–,–
B2,0.0294,1.18,–,–,–
B3,0.0872,16.9,–,–,–
B4,0.225,53.8,–,–,–
B5,0.139,–,76.7,–,–
B6,0.0634,14.6,–,–,–
B7,0.0239,1.96,–,–,–
B8,0.0237,1.81,–,–,–
B9,0.0291,1.57,–,–,–
B10,0.0106,1.74,–,–,–
B11,0.0206,2.41,–,–,–
B12,0.0351,3.01,–,–,–
B13,–,–,–,0.0177,1.81
B14,–,–,–,0.0205,1.66

# Target: hGLP-1R (Homo sapiens, UniProt P43220)
# Sequence (P43220 24-463): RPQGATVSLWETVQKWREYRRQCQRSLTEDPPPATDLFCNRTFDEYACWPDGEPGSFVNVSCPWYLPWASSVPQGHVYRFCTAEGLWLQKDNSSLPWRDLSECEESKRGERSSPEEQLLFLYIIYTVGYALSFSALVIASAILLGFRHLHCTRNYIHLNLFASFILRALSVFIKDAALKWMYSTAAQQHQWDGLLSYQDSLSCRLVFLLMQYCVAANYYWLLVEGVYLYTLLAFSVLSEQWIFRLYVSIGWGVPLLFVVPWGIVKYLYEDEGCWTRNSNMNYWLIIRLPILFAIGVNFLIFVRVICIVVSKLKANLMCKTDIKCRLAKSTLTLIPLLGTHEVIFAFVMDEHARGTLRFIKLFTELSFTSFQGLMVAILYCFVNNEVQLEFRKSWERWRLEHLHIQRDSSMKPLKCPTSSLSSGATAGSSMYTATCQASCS
# Test: cell-based or functional assay
Binder,Relative cAMP EC50 [nM],"cAMP Rel EC50, nM (1% HSA) [nM]",cAMP Rel EC50 (in the presence of 1% HSA) [nM],"Relative cAMP EC50, nM (0.1% casein) [nM]","cAMP Rel EC50 (receptor-expressing HEK-293 cells, 1% HSA) [nM]"
B1,0.311,33.6,–,–,–
B2,0.173,11.7,–,–,–
B3,0.421,26.9,–,–,–
B4,0.815,41.1,–,–,–
B5,0.693,–,138,–,–
B6,0.293,15.1,–,–,–
B7,0.365,24.7,–,–,–
B8,0.267,23.9,–,–,–
B9,0.572,34.3,–,–,–
B10,0.352,54.6,–,–,–
B11,0.731,23.2,–,–,–
B12,0.696,24.5,–,–,–
B13,–,–,–,0.214,11.3
B14,–,–,–,0.568,18.9
